Measurements: PMC4769169 (eLife, 2016)

Columns and labels:
Rabin8 (Rab3IP) 144-460 = Rabin8 (Rab3IP) 144-460 (UniProt Q96QF0); assay: Ni2+-NTA pull-down by His-Rabin8; conditions: reference: non-phosphorylated Rab8a; sites T72
[1] = molecular target: HIS-tagged Rabin8 (residues 144-460) (human) (UniProt Q96QF0)
LRRK2 = molecular target: T1, LRRK2 (Homo sapiens, UniProt Q5S007, G2019S); assay: in vitro kinase assay with recombinant LRRK2 and Rab10, inhibitor at […]; type: biochemical
T1 construct: GST-LRRK2 (residues 960-2527)
T1 sequence (Q5S007 960-2527 G2019S): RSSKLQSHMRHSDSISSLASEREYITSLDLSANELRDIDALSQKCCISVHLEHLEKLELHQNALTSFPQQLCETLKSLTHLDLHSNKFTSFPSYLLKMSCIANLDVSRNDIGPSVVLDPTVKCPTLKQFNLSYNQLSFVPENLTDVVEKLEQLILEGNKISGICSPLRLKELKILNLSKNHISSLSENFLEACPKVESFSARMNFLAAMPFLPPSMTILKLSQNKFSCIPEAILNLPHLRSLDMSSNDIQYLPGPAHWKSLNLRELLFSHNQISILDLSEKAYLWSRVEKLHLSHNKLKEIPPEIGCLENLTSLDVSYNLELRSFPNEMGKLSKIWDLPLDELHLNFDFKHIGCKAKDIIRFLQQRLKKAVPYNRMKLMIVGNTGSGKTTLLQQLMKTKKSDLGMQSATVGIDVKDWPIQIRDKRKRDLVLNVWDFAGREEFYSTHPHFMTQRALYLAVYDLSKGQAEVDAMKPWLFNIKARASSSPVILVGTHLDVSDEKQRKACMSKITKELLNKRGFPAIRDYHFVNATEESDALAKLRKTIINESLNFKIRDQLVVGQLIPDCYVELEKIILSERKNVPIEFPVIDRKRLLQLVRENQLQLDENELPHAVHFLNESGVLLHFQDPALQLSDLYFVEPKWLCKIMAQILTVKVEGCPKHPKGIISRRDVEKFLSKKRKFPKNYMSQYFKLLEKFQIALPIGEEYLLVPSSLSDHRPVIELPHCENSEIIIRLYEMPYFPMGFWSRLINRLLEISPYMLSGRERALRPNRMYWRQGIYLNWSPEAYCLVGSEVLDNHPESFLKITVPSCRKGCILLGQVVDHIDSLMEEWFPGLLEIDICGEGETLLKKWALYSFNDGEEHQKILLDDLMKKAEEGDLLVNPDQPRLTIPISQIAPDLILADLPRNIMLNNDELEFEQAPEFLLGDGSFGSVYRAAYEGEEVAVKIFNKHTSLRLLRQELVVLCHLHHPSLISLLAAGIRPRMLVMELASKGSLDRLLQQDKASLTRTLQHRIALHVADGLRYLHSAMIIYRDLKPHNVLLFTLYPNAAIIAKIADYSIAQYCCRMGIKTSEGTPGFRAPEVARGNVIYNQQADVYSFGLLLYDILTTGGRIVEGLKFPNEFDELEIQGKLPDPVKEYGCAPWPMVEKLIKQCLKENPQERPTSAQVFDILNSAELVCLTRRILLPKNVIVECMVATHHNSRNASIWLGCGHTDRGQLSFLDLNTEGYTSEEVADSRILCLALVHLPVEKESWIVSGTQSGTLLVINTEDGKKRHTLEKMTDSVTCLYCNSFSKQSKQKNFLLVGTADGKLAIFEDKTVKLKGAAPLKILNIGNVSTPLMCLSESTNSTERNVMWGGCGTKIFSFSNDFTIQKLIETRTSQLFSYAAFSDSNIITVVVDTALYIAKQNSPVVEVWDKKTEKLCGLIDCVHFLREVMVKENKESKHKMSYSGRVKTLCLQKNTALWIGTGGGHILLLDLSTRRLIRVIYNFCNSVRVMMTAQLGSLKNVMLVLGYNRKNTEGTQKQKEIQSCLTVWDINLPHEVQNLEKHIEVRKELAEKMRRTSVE

Chain of HIS-tagged Rabin8 (residues 144-460) (human) (Q96QF0 144-460): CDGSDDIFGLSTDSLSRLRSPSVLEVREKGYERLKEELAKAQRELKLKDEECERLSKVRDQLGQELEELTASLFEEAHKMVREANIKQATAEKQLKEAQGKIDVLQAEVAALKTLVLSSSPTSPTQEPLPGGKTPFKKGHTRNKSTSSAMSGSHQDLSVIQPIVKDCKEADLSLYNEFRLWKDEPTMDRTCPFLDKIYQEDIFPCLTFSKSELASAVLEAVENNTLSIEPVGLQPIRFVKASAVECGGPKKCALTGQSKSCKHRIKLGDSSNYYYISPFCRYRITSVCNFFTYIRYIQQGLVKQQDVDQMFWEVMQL

Rab8a 1-183 (from UniProt P61006) LRRK2-G2019S-phosphorylated, ion-exchange-enriched pT72-Rab8a
binding against the reference (Rabin8 (Rab3IP) 144-460): weaker

Rab8a (1-183) quantitatively phosphorylated pT72 (from UniProt P61006 1-183) (domain or fragment)
rate of Rabin8-catalyzed mant-GDP exchange (GEF assay with Rabin8 144-245, 2 μM), T72-phosphorylated against non-phosphorylated Rab8a (1-183): inhibition [1]: 4 fold

O=C(Nc1cccnc1)c1cc(-c2ccnc(F)c2)ccc1OCc1ccccc1 [GSK2578215A]
in vitro kinase assay with recombinant LRRK2 and Rab10, inhibitor at 2 μM (LRRK2): Inhibition of LRRK2-G2019S by GSK2578215A or HG-10-102-01 prevents phosphorylation.
